Source: US20190276531A1

Legend:
[1] = target: cynomolgus TIM-3 Fc fusion antigen (Sino Biologicals) (cynomolgus monkey (Macaca fascicularis)); assay: ELISA; EC50 on cynomolgus TIM-3 over EC50 on human TIM-3
[2] = target: cynomolgus TIM-3 Fc fusion antigen (Sino Biologicals) (cynomolgus monkey (Macaca fascicularis)); assay: ELISA; TIM-3 Fc fusion coated at 1 µg/ml, antibody titrated 2-fold from 1000 nM, HRP secondary

Sequence of cynomolgus TIM-3 Fc fusion antigen (Sino Biologicals) (cynomolgus monkey (Macaca fascicularis)) (chain, as listed by the source limits assumed): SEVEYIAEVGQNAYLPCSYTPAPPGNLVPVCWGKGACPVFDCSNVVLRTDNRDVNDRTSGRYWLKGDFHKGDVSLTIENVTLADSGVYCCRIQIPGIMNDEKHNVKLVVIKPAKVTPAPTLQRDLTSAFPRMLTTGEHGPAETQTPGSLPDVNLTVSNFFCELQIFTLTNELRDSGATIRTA

B1: antibody 19416 (antibody, V domains shown)
VH: QVQLVESGPGLVKPSQTLSLTCTVSGGSINSGGYYWSWIRQHPGKGLEWIGYIYYSGSIYYNPSLRSRLTISVDTSKNQFSLKLSSVTAADTAVYYCATPYYYGSGSYGDYWGQGTLVTVSS
VL: DIQMTQSPATLSLSPGERATLSCRASQSVNNYLAWYQQKPGQAPRLLIYDASNRATGIPARFSGSGSGTDFTLTISSLEPEDFAVYYCQQRSNWPITFGQGTRLEIK
- Ratio Cynomolgus/Human EC50 [1]: 47
- EC50 [2]: 9.42 nM
